The data set in a line: soluble on expression in E. coli; label from the status in PepcDB or PDB records.
With “MVLSQTHHHHHRHEGNDRSLISILTDPIVNLFRSIPIEILDQNEELSPSQKDFLDDFLELQNDSDLEESEDFIQESQEVVSSVDDEIKVILNEIINQVETETQLIPKIIIHSDDAEVPEESIEIAVQSFGCPLDSFSGLSDSGVDLTVDDVPDDEDDEITVQTFESTPKELPTVTKFTNCTFIRSQSSARCKAILPDTTYICTLPPVSATFSAPVVTPKKIVKRKKSTSAAAKMAAEVLQNEPHCFIAPSSSIDRPFKLLVQKETFLIDAESMSRISPIFNVMCFGKDFEKMDLSREIVDEKSNDIDCFLRAVHDTSMINSSNFALVLRLSNKYQVDPVIDACQNFIIRQHLDVLRADEILTMLIAAFEHHCKREVVQKLIKRLASEGNSVFTKLKISRYLPAQVYGSVISTSMNLNQAKEHELMNGHVLKMERSKIRWRQSVCEECKSVAECANCEECKKTVCRNHVSKLKCSSDYGAKLAADLKKKIVDFEWQD”, the “soluble on expression in E. coli” value is listed as “not soluble”.

“MVLTGVTSKAIRKGDAEPPLSKGSFRVYNMRFCPWAERAMLYVAAKGIEAEVVNLNVTDKLEWYWTKHYQGKAPAVEHNGKVVIESGFIPEYLDDAFPETRILPTDPYEKVQQKLLADRLTAVAHAVPLLFAVMRDRTLKDEKQRKVFEVLKQAENLLANDFYAGSQPGYPDYLSFPFFEKIWWSASLDGVVDLPTIEFPGEEEYPKLTKWFQKMISSDVVQSVTQSLEHGAAFMNAYATHQELNYDLGL”: the “soluble on expression in E. coli” value is given as “not soluble”.

With “MVLVLDFGSQYTRLIARRLRELRAFSLILPGDAPLEEVLKHRPQALILSGGPRSVFDPDAPRPDPRLFSSGLPLLGICYGMQLLAQELGGRVERAGRAEYGKALLTRHEGPLFRGLEGEVQVWMSHQDAVTAPPPGWRVVAETEENPVAAIASPDGRAYGVQFHPEVAHTPKGMQILENFLELAGVKRDWTPEHVLEELLREVRERAGKDRVLLAVSGGVDSSTLALLLAKAGVDHLAVFVDHGLLRLGEREEVEGALRALGVNLLVVDAKERFLKALKGVEDPEEKRKIIGREFVAAFSQVARERGPFRFLAQGTLYPDVIESAGGHGAAKIKSHHNVGGLPEDLEFELLEPFRLLFKDEVRELALLLGLPDTLRLRHPFPGPGLAVRVLGEVTEERLEILRRADDIFTSLLRERGLYEKVAQALAVLTPVRSVGVAGDERKYGYVLALRAVTTEDFMTADWARLPLEFLDEAARRITRRVPEIGRVVYDLTSKPPATIEWE”, the “soluble on expression in E. coli” value is given as “soluble”.

On to “MVMSQKTLFTKSALAVAVAIISTQAWSAGFQLNEFSSSGLGRAYSGEGAIADDAGNVSRNPALITMFDRPTFSAGAVYIDPDVNISGTSPSRRTLDADNIAPTAWVPNVHFVAPINDQFGWGASITSNYGLATEFNDTYAGGSVGGTTDLETMNLNLSGAYRLNEAWSFGLGFDAVYARAKIERFAGDLGQLVAAQNPALAPVAGQIPSDTKIAHLNGNQWGFGWNAGILYELDKNNRYALTYRSEVKIDFKGNYSSDLPIAINRFNLPIPTATGGATQSGYLTLNLPEMWEVSGYNRVAPQWAIHYSLAYTSWSQFQELKAKSTAGDTLFEKHEGFKDAYRIALGTTYYYDDNWTFRTGIAFDDSPVPAQNRSISIPDQDRFWLSAGTTYAFNKDASVDVGVSYMHGQSVKINEGPYQFESEGKAWLFGTNFNYAF”, for which the “soluble on expression in E. coli” value is recorded as “not soluble”.

Consider “MVMVLDSLGRALSNALKKIARAGSVDEALVKEVVRDIQRALLQADVNVRLVLKLTKEIQRRALEEKPPAGISKKEHIIKIVYEELTKFLGTEAKPIEIKEKPTVLLTVGVQGSGKTTTVAKLARYFQKRGYKVGVVCSDTWRPGAYHQLKQLLDPYHIEVFGDPNEKDAVKLAKEGVEYFKTRDVDLIIVDTAGRHKEEKDLIEEMRMISEEIRPHEVILVIDGTIGQQAYNQALAFKEATPIGSIIVTKLDSSAKGGGALSAVAATGAPIKFIGVGEKIDDLEPFDPARFVSRLLGLGDIQGLLEKFKELEKEVEFTEEDIDRFLRGKFTLKDMYAQLEAMRKMGPLKQILRMIPGLGYSLPDELISVGEERLRKFKVIMDSMTEEELMNPEIINYSRIKRIARGSGTSIKDVKELLTQYNQMKKFFKSMNKRQLSRLARRFGM”, for which the “soluble on expression in E. coli” value is “soluble”.

Consider “MVNGDGNPREVIEDLAANNPAIQNIRLRHENKDLKARLENAMEVAGRDFKRAEELEKAKQALEDQRKDLETKLKELQQDYDLAKESTSWDRQRLEKELEEKKEALELAIDQASRDYHRATALEKELEEKKKALELAIDQASQDYNRANVLEKELE”, for which the “soluble on expression in E. coli” value is “soluble”.

Turning to “MVNKRTVTELSLFAGLIVSMHVAYYTIQNNPSLVAPHQRQELFYVRWLKEKIPALRPYGVTDDKTPKADQ”, the “soluble on expression in E. coli” value is recorded as “not soluble”.

As for “MVNREIVMDYILSCLQDLVENGVEIKPDSDLVNDLGLESIKVMDLLMMLEDRFDISIPINILLDVKTPAQLMETLLPWLENK”, the “soluble on expression in E. coli” value is given as “not soluble”.

In the case of “MVQEIEQWLRRHQVFTEPAYLGETAILLGQQFILSPYLVIYRIEAKEMIICEFRRLTPGQPRPQQLFHLLGLLRGIFVHHPQLTCLKMLIITDVLDEKKAMLRRKLLRILTVMGATFTQLDGDNWTVLSAEHLIQRRF”, the “soluble on expression in E. coli” value is “not soluble”.

Consider “MVQNDETQYIARILDGDTECFSAFLDRYSRPLYVLIVQIVGCSEDAEELVQDVFLKAFRCLGSYRGECRFSTWLYRIAYTTAVSATRKKKQEFLYIEENTINNVPDEKADDILYPTDDEERTARLIQAIDLLNVEEKALITLFYYEEKSIEEIGEVLKLSPGNVKVKLHRTRKKIYVLMNGKE”, for which the “soluble on expression in E. coli” value is “not soluble”.

As for “MVQPDDVLLGRYKIRFDIGPGRIGRIFAVLDQQDQSRSRVKVIKVLPMVAGEQFLDDPQTYNEFDFLNHLRGTIGVPNIIQHFQVGRERVMMMDKYLATLEQFRTRCDDRRISDLNIIKIAVRLVNVLEAIHQKGVIHRDLKTTNVMIRSRGQSEVNLVLIDYGLSTFNGTPPRALAPDAKSPEIMFRGHTHVSPALEEGLKADAVDDLQMLAIMLIWCSAYHPFGPIGQESSRKKAEFITNPVKYVKGRPFLRPLMTAIMAQPRGTRPNYQAILDAAAGPFPIDDIRDSLKTEISLLGVRFL”, the “soluble on expression in E. coli” value was “not soluble”.

Take “MVQVGAAAINRVDVAVIGGGIAGVAIAEYVARHTNLSVQLLEQNSHLGGDSSGKLEGWFHTGALYSGQDDGQTFFNCVNGVEDLLNHYSHYFAGRCNLTLEQFDHGYRPTVTGAGWFDPNPVYLIHPQRHSPEMLQSGLKGDRVQLEMQLKRVLGRLEMAYGQQFNWRSPTGNGAVAPDYDHLESYEQRSCSLLGQSEKISHYCQQFDLSHGVKPSDYALLKSLDCAMDTQGILQDLTASALAHGTAIATGINLEQINVDRYGPVRVQSIFYRDCQGQQHYLKAKAFIFAVGAGFERILPTLQVRAKLKQSRSTMVVAYPAISSHNFVRMSTKNSYHFNHFFQRANIPDSSEFLNYSMLANSGYVSNENDYLASGEIELLLDTAARYFSEENLYQRQLWSYDCVKTEFISDDAQKRRYSYWIEVNPQSNYLCVLPGKFSFFPTVAVQTLKQLKTILPTEEVDRSHRDYSAHYHQAQALVASPYPHQLLASYWKNNANSLEHHHHHH”: the “soluble on expression in E. coli” value is reported as “soluble”.

With “MVRGFYLRFGEGVSEEANRRALALAEALLRAPPPGLLDAVPAYGVLYLEYDPRRLSRGRLLRLLKGLPQERAEEGRVVEIPVRYDGEDLPEVASRLGLSLEAVKALHQKPLYRVYALGFTPGFPFLAEVEPALRLPRKPHPRPRVPAHAVAVAGVQTGIYPLPSPGGWNLLGTSLVAVYDPHRETPFLLRPGDRVRFLEAEGPTPPEPRPLELLPEEPRLPALLVEEPGLMDLVVDGGRFLGGHLGLARSGPLDAPSARLANRLVGNGAGAPLLEFAYKGPVLTALRDLVAAFAGYGFVALLEGEEIPPGQSFLWPRGKTLRFRPRGPGVRGYLAVAGGLEVRPFLGSASPDLRGRIGRPLWAGDVLGLEALRPVRPGRAFPQRPLPEAFRLRLLPGPQFAGEAFRALCSGPFRVARADRVGVELLGPEVPGGEGLSEPTPLGGVQVPPSGRPLVLLADKGSLGGYAKPALVDPRDLWLLGQARPGVEIHFTSG”, the “soluble on expression in E. coli” value was “soluble”.

For “MVSAKDFSGAELYTLEEVQYGKFEARMKMAAASGTVSSMFLYQNGSEIADGRPWVEVDIEVLGKNPGSFQSNIITGKAGAQKTSEKHHAVSPAADQAFHTYGLEWTPNYVRWTVDGQEVRKTEGGQVSNLTGTQGLRFNLWSSESAAWVGQFDESKLPLFQFINWVKVYKYTPGQGEGGSDFTLDWTDNFDTFDGSRWGKGDWTFDGNRVDLTDKNIYSRDGMLILALTRKGQESFNGQVPRD”, the “soluble on expression in E. coli” value is “soluble”.
